Assay results published in EP4342988A1 (Eberhard Karls Universität Tübingen, Medizinische Fakultät, dated 2024).

Tests used:
[1] = molecular target: T1, CTCF (CCCTC-binding factor / Transcriptional repressor CTCF) (UniProt P49711 1-727); assay: anti-Flag pull-down of tagged THAP1 from HEK-293 nuclear extract (TAP), Western blot
T1 sequence (looked up): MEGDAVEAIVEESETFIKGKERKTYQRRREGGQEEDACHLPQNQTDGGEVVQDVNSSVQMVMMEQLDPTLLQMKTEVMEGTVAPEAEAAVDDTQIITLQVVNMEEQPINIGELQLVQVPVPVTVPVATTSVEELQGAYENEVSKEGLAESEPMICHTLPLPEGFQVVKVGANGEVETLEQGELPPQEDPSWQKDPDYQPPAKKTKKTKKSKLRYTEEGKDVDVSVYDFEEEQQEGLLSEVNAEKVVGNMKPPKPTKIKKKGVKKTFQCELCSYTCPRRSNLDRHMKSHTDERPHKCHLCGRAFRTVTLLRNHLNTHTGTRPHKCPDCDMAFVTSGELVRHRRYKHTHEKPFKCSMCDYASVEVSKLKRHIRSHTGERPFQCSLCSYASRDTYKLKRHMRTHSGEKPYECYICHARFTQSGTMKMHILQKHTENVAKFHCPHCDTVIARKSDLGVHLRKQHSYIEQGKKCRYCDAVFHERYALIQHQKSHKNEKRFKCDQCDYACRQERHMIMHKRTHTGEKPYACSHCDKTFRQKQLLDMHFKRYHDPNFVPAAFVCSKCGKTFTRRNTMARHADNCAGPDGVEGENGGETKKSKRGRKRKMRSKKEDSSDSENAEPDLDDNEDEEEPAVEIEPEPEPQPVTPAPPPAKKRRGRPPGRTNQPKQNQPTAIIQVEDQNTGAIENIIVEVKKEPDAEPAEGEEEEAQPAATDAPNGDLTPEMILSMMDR

[2] = molecular target: 149 proteins which strongly interact with THAP1; assay: TAP-MS, anti-Flag pull-down of tagged THAP1 against empty vector, LC-MS/MS peak area ratios

binding result [1]: binds | log2 (TAP-MS ratio) [2]: 15 log2
B1: Strep/FLAG tagged THAP1 protein (other, human, UniProt Q9NVV9 1-213, looked up)
chain: MVQSCSAYGCKNRYDKDKPVSFHKFPLTRPSLCKEWEAAVRRKNFKPTKYSSICSEHFTPDCFKRECNNKLLKENAVPTIFLCTEPHDKKEDLLEPQEQLPPPPLPPPVSQVDAAIGLLMPPLQTPVNLSVFCDHNYTVEDTMHQRKRIHQLEQQVEKLRKKLKTAQQRCRRQERQLEKLKEVVHFQKEKDDVSERGYVILPNDYFEIVEVPA
notes: Bait of the TAP-MS pull-down from nuclear extract of HEK-293 cells on anti-Flag M2 agarose, with benzonase added; also called wild-type THAP1; hTHAP1; not shown: Strep/FLAG tag
